Measurements from paper PMC9482650, “Quantitative fragmentomics allow affinity mapping of interactomes” (Nature Communications, 2022).

Tests used:
Assay in all cases: holdup assay
Design in all cases: key: below the threshold = too weak to quantify, mostly under pKd 3.1 to 4
Conditions in all cases: plain residues with an end cap or a label only (N-terminal biotin on a linker: ado-ado)
[1] = target: GRASP, Q7Z6J2
[2] = target: MAST1, Q9Y2H9
[3] = target: HTRA2, O43464
[4] = target: T1, NHERF3_4, Q5T2W1
T1 sequence (Q5T2W1 373-468, limits assumed, looked up): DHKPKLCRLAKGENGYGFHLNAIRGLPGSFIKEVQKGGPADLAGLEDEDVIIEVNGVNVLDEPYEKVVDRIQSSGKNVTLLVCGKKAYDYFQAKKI

[5] = target: T2, DFNB31_3, Q9P202
T2 sequence (Q9P202 811-907, limits assumed, looked up): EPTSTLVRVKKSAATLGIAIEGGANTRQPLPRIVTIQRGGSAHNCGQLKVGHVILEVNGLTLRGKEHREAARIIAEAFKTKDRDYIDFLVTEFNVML

[6] = target: IL16_3, Q14005
Sequence of IL16_3, Q14005 (Q14005 1107-1207): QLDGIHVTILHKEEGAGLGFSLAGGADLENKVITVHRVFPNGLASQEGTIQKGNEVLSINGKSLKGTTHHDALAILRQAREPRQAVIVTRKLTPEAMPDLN

[7] = target: FRMPD3, Q5JV73
Sequence of FRMPD3, Q5JV73 (Q5JV73 12-100): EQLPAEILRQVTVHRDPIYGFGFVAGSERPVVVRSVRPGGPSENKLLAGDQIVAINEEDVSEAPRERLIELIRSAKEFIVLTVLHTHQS

[8] = target: CASK, O14936
Sequence of CASK, O14936 (O14936 487-570): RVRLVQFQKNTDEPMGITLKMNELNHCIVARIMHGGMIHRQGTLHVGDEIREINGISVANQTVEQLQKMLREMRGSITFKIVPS

[9] = target: T3, DLG3_1, Q92796
T3 sequence (Q92796 125-227, limits assumed, looked up): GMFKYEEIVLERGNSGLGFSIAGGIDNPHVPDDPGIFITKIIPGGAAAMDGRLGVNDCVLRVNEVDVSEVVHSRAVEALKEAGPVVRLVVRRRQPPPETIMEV

[10] = target: T4, PCLO, Q9Y6V0
T4 sequence (Q9Y6V0 4491-4600, limits assumed, looked up): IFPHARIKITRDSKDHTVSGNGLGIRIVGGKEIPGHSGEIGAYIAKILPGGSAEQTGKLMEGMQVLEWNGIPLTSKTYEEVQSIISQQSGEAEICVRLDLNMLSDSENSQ

[11] = target: T5, NHERF3_1, Q5T2W1
T5 sequence (Q5T2W1 4-100, limits assumed, looked up): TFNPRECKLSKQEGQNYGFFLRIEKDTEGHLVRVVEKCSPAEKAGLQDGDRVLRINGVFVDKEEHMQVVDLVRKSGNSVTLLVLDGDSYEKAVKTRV

[12] = target: GOPC, Q9HD26
[13] = target: T6, MPDZ_5, O75970
T6 sequence (O75970 695-796, limits assumed, looked up): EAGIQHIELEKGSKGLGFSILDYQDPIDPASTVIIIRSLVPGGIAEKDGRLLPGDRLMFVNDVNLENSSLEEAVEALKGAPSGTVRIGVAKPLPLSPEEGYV

[14] = target: DLG1_1, Q12959
[15] = target: GRIP2_6, Q9C0E4
Sequence of GRIP2_6, Q9C0E4 (Q9C0E4 648-740): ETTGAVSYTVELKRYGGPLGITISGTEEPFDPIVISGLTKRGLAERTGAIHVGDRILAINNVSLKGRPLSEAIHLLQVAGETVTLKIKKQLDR

[16] = target: T7, SNTA1, Q13424
T7 sequence (Q13424 82-180, limits assumed, looked up): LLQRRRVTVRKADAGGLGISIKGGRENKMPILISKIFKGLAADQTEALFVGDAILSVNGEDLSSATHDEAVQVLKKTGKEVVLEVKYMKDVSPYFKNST

[17] = target: DLG1_3, Q12959
[18] = target: T8, MPP6, Q9NZW5
T8 sequence (Q9NZW5 125-219, limits assumed, looked up): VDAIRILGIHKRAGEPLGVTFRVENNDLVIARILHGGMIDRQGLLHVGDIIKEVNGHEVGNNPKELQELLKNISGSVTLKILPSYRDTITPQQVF

[19] = target: MAGI2_2, Q86UL8
Sequence of MAGI2_2, Q86UL8 (Q86UL8 410-522): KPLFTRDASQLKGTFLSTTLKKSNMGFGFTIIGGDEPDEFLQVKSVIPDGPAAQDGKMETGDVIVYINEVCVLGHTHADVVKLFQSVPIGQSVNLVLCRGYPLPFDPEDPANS

[20] = target: DLG1_2, Q12959
[21] = target: NHERF2_2, Q15599
Sequence of NHERF2_2, Q15599 (Q15599 142-238): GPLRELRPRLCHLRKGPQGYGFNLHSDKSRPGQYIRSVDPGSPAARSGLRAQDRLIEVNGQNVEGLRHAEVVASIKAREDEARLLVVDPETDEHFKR

[22] = target: FRMPD2_3, Q68DX3
Sequence of FRMPD2_3, Q68DX3 (Q68DX3 1073-1166): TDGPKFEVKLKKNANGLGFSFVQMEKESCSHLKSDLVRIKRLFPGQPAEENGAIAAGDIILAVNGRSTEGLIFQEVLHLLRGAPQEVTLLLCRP

[23] = target: T9, SIPA1L2, Q9P2F8
T9 sequence (Q9P2F8 945-1036, limits assumed, looked up): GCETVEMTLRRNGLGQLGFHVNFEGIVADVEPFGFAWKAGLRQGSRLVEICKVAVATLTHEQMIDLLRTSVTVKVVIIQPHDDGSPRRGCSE

[24] = target: T10, LIN7A, O14910
T10 sequence (O14910 103-200, limits assumed, looked up): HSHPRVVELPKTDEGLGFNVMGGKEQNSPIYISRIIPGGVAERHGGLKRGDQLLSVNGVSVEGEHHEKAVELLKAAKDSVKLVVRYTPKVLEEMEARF

[25] = target: T11, PDZD2_2, O15018
T11 sequence (O15018 329-429, limits assumed, looked up): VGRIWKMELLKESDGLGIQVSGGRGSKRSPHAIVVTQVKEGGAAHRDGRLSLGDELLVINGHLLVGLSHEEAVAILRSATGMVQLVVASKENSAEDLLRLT

[26] = target: GRID2IP_2, A4D2P6
Sequence of GRID2IP_2, A4D2P6 (A4D2P6 272-370): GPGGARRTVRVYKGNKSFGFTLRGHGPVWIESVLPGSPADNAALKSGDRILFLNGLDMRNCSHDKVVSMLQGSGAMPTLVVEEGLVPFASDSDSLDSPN

[27] = target: GRIP2_5, Q9C0E4
Sequence of GRIP2_5, Q9C0E4 (Q9C0E4 544-642): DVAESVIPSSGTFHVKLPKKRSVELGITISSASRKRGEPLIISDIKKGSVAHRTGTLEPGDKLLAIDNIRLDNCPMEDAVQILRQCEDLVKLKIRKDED

Sequence of HTRA2, O43464 (O43464 355-458): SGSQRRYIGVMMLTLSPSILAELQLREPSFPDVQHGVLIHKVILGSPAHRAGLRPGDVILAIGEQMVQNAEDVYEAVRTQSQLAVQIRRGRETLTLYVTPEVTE
Sequence of MAST1, Q9Y2H9 (Q9Y2H9 962-1065): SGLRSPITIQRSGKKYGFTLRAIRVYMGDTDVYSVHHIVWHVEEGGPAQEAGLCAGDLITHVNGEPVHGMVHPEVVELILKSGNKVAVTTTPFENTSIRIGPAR
Sequence of GRASP, Q7Z6J2 (Q7Z6J2 96-193): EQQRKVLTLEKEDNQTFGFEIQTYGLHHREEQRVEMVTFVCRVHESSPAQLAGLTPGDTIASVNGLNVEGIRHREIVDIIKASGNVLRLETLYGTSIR

Binder | pKd [1] | pKd [2] | pKd [3] | pKd [4] | pKd [5] | pKd [6] | pKd [7] | pKd [8] | pKd [9] | pKd [10] | pKd [11] | pKd [12] | pKd [13] | pKd [14] | pKd [15] | pKd [16] | pKd [17] | pKd [18] | pKd [19] | pKd [20] | also measured
ATKDKKITTV [EXOC4, Q96A65] | 3.95 | below the threshold | below the threshold | below the threshold | below the threshold | below the threshold | below the threshold | below the threshold | 4.59 | below the threshold | below the threshold | 3.87 | below the threshold | 5.05 | below the threshold | 4.26 | 4.08 | below the threshold | 5.52 | 5.91 | pKd [21]: 3.6; pKd [22]: below the threshold; pKd [23]: 3.52; pKd [24]: 3.52; pKd [25]: 3.88; pKd [26]: 3.98; pKd [27]: 3.49
FHSIKQSTAV [CRHR1, P34998] | 4.72 | 4.74 | below the threshold | 4.27 | below the threshold | below the threshold | below the threshold | below the threshold | 4.04 | below the threshold | 5.52 | 4 | below the threshold | 4.39 | below the threshold | 3.71 | 3.96 | 3.7 | 5.03 | 4.98 | pKd [21]: below the threshold; pKd [22]: below the threshold; pKd [23]: below the threshold; pKd [24]: below the threshold; pKd [25]: 4.48; pKd [26]: 4.34; pKd [27]: below the threshold

Further lines, with some results ahead:

pKd [1] | pKd [2] | pKd [3] | pKd [4] | pKd [5] | pKd [6] | pKd [7] | pKd [8] | pKd [9] | pKd [10] | pKd [11] | pKd [12] | pKd [13] | pKd [14] | pKd [15] | pKd [16] | pKd [17] | pKd [18] | pKd [19] | pKd [20] | Binder | also measured
3.96 | 4.96 | below the threshold | below the threshold | below the threshold | below the threshold | below the threshold | below the threshold | below the threshold | below the threshold | 5.29 | 3.9 | below the threshold | 3.72 | below the threshold | 4.47 | 3.73 | below the threshold | 3.64 | 4.19 | SRPHTNETSL [MCC, P23508] | pKd [21]: 4.49; pKd [22]: below the threshold; pKd [23]: below the threshold; pKd [24]: below the threshold; pKd [25]: below the threshold; pKd [26]: 4.21; pKd [27]: below the threshold
3.59 | 3.96 | below the threshold | 3.73 | below the threshold | below the threshold | below the threshold | below the threshold | below the threshold | below the threshold | below the threshold | below the threshold | below the threshold | below the threshold | below the threshold | below the threshold | below the threshold | below the threshold | below the threshold | below the threshold | GSQSQVETEA [FKBP4, Q02790] | pKd [21]: below the threshold; pKd [22]: below the threshold; pKd [23]: below the threshold; pKd [24]: below the threshold; pKd [25]: below the threshold; pKd [26]: 3.68; pKd [27]: below the threshold
